Read-outs that look alike come from different tables or passages of the source.
Assays:
[1] = target: cynomolgus monkey PD-L1 (full length, on CHO cells) (cynomolgus monkey (Macaca fascicularis)), G7PSE7; assay: flow cytometry on CHO cells transfected with cynomolgus PD-L1, PE anti-human IgG secondary, MFI (PE)
[2] = target: human PD-L1 (full length, on cells) (human), Q9NZQ7; assay: flow cytometry on SK-MES-1 cells, PE anti-human IgG secondary, MFI (PE)
[3] = target: human PD-L1 (full length, on cells) (human), Q9NZQ7; assay: flow cytometry on PC3 cells, PE anti-human IgG secondary, MFI (PE)
[4] = target: human PD-L1 (full length, on cells) (human), Q9NZQ7; assay: flow cytometry on MDA-MB-231 cells, PE anti-human IgG secondary, MFI (PE)
[5] = target: human PD-L1 (full length, on cells) (human), Q9NZQ7

human PD-L1 (full length, on cells) (human), Q9NZQ7, sequence (Q9NZQ7 19-290 limits assumed): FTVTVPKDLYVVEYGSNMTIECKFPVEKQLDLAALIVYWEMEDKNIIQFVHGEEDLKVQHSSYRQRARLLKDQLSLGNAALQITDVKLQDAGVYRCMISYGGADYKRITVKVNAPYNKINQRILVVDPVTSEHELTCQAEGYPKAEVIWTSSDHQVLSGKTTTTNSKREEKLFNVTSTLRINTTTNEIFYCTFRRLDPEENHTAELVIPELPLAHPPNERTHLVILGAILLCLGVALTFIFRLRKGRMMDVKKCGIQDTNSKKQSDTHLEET
cynomolgus monkey PD-L1 (full length, on CHO cells) (cynomolgus monkey (Macaca fascicularis)), G7PSE7, sequence (G7PSE7 entry or part of it): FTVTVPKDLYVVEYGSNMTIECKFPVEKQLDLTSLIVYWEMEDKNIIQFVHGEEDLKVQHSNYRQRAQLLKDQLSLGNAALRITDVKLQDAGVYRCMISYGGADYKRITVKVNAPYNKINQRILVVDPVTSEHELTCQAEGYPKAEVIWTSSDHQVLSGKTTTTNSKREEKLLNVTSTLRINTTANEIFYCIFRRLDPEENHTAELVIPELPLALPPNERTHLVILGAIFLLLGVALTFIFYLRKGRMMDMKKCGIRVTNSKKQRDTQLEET

EC50 (read off the curve) [1]: 0.2 µg/mL
EC50 (read off the curve) [2]: 0.2 µg/mL
EC50 (read off the curve) [3]: 0.05 µg/mL
EC50 (read off the curve) [4]: 0.06 µg/mL
EC50 (read off the curve) [5]: 0.1 µg/mL
B1: bsIgG1-b12-FEAL×547-FEAR (bispecific antibody, not shown: another chain or arm of the molecule)
heavy: EVQLLEPGGGLVQPGGSLRLSCEASGSTFSTYAMSWVRQAPGKGLEWVSGFSGSGGFTFYADSVRGRFTISRDSSKNTLFLQMSSLRAEDTAVYYCAIPARGYNYGSFQHWGQGTLVTVSSASTKGPSVFPLAPSSKSTSGGTAALGCLVKDYFPEPVTVSWNSGALTSGVHTFPAVLQSSGLYSLSSVVTVPSSSLGTQTYICNVNHKPSNTKVDKRVEPKSCDKTHTCPPCPAPEFEGGPSVFLFPPKPKDTLMISRTPEVTCVVVAVSHEDPEVKFNWYVDGVEVHNAKTKPREEQYNSTYRVVSVLTVLHQDWLNGKEYKCKVSNKALPAPIEKTISKAKGQPREPQVYTLPPSREEMTKNQVSLTCLVKGFYPSDIAVEWESNGQPENNYKTTPPVLDSDGSFFLYSRLTVDKSRWQQGNVFSCSVMHEALHNHYTQKSLSLSPGK
light: SYVLTQPPSVSVAPGQTARITCGGNNIGSKSVHWYQQKPGQAPVLVVYDDNDRPSGLPERFSGSNSGNTATLTISRVEAGDEADYYCQVWDSSSDHVVFGGGTKLTVLGQPKAAPSVTLFPPSSEELQANKATLVCLISDFYPGAVTVAWKADSSPVKAGVETTTPSKQSNNKYAASSYLSLTPEQWKSHRSYSCQVTHEGSTVEKTVAPTECS
modifications: not checked

— US20200239579A1
